Laboratory results taken from IntAct's records for PubMed 17213653.

B1: Protein RCR1 (Saccharomyces cerevisiae), P38212 (parent)
chain: MGLISYENEAINEVKKADNHHVSKFVTSYYGPSSSSWQSGIWILFVLFVAAVILIILFTFVANRRRRRMGRAPIRGTAWLTPPSYRQSQQQYTGTVQQRTDDYVPEYTETANEHDLGYYDQRGEFHPNDKAAYVAPPPLVQECSSESVNSLERPPAAVVHQANSLDTDYGLTRPSNGRVPAVSDTVEQLERLPGGTTTQEINPPERAKVNARS
B2: Protein RCR1 (Saccharomyces cerevisiae), P38212 (parent)
chain: B1 chain
partner: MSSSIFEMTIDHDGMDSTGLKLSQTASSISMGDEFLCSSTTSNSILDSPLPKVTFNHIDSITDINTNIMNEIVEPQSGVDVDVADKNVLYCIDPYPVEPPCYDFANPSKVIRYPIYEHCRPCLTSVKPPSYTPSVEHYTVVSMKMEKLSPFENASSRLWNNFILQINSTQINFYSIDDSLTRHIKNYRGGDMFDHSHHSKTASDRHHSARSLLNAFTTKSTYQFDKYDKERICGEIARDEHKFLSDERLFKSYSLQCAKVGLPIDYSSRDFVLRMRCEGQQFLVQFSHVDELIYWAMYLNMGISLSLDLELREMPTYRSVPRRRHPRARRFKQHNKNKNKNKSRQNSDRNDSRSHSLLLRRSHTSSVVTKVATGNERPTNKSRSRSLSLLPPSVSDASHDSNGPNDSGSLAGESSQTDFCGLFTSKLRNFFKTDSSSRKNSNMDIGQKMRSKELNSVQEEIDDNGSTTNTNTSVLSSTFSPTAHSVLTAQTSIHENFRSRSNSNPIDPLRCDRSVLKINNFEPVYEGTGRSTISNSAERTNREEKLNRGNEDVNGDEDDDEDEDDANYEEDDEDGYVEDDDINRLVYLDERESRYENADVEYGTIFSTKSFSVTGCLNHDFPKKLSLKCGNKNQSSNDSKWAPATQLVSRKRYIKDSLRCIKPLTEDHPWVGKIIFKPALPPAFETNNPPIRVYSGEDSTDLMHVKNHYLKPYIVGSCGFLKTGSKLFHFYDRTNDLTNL

Variants of: B1
Conditions: with rsp5_yeast RSP5, P39940
Chain of rsp5_yeast RSP5, P39940 (P39940 whole entry): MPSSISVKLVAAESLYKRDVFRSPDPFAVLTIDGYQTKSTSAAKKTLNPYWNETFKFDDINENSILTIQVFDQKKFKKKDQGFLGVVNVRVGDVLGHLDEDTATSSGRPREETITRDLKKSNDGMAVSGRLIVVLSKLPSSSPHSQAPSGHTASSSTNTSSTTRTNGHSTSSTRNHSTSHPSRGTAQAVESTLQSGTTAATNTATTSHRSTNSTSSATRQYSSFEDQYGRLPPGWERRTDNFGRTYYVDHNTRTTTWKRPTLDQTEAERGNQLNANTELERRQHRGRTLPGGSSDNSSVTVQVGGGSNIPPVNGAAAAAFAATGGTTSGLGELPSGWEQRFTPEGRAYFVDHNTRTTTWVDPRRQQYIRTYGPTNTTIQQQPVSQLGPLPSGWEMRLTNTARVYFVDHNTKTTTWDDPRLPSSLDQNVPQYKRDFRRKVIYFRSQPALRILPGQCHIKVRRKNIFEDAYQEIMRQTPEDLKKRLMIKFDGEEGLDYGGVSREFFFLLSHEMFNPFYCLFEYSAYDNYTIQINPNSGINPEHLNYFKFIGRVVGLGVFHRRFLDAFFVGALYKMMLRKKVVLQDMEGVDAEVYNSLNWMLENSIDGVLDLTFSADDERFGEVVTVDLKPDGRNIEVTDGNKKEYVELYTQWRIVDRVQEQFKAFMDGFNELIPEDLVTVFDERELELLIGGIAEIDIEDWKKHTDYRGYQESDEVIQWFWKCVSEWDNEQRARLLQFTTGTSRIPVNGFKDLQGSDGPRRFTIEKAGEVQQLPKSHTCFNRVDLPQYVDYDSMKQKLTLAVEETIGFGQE
In the case of P105A, the “effect of a mutation on the interaction” value is reported as “disrupting interaction”.
For P82Q;P83A, the “effect of a mutation on the interaction” value was “decreasing interaction”.

Variants of: B1
Conditions: with rsp5_yeast RSP5, P39940
Remark: another data set of the same source
With P105A the “effect of a mutation on the interaction” value was “decreasing interaction”.
In the case of P82Q;P83A;P105A, the “effect of a mutation on the interaction” value is reported as “disrupting interaction”.

Variants of: B2
Conditions: with yno4_yeast yno4, P53907
For P82Q;P83A, the “effect of a mutation on the interaction” value was “disrupting interaction”.
